{"source": "the supplement of paper PMC9112550", "about": "“Optimization of the antimicrobial peptide Bac7 by deep mutational scanning” (BMC Biology, 2022);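 further: peptides expressed intracellularly from a pBAD plasmid library in pooled LB shake-flask culture, induced with 0.3% L-arabinose, DNA abundance read by NGS, three biological replicates, DESeq2 with apeglm shrinkage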", "data": [{"system": "Escherichia coli TOP10", "experiment": "shrunken log2 fold change of peptide-encoding DNA abundance (4.5 h post-induction vs induction); higher = less antimicrobial activity (less host growth inhibition)", "conditions": "time post-induction: 4.5 h; library: site-saturation at positions 5, 18, 19, 20", "values": [{"sequence": "RRIRPRPPRLPRPRPRPRWYPRP", "shrunken log2 fold change": -0.0594}, {"sequence": "RRIRTRPPRLPRPRPRPKQQPRP", "shrunken log2 fold change": -0.0149}, {"sequence": "RRIRYRPPRLPRPRPRPWCHPRP", "shrunken log2 fold change": -0.191}, {"sequence": "RRIRLRPPRLPRPRPRPKNLPRP", "shrunken log2 fold change": 0.0548}, {"sequence": "RRIRKRPPRLPRPRPRPDDVPRP", "shrunken log2 fold change": 2.03}, {"sequence": "RRIRDRPPRLPRPRPRPRANPRP", "shrunken log2 fold change": 0.567}, {"sequence": "RRIRERPPRLPRPRPRPKRDPRP", "shrunken log2 fold change": 0.024}, {"sequence": "RRIRQRPPRLPRPRPRPDISPRP", "shrunken log2 fold change": 0.0318}, {"sequence": "RRIRRRPPRLPRPRPRPTDSPRP", "shrunken log2 fold change": 0.485}, {"sequence": "RRIRIRPPRLPRPRPRPFYNPRP", "shrunken log2 fold change": -0.756}, {"sequence": "RRIRCRPPRLPRPRPRPCYQPRP", "shrunken log2 fold change": -0.182}, {"sequence": "RRIRSRPPRLPRPRPRPVAGPRP", "shrunken log2 fold change": 0.0927}, {"sequence": "RRIRGRPPRLPRPRPRPEVAPRP", "shrunken log2 fold change": 1.88}, {"sequence": "RRIRVRPPRLPRPRPRPITMPRP", "shrunken log2 fold change": -0.432}, {"sequence": "RRIRRRPPRLPRPRPRPFVAPRP", "shrunken log2 fold change": 0.354}, {"sequence": "RRIRSRPPRLPRPRPRPEFGPRP", "shrunken log2 fold change": 0.358}, {"sequence": "RRIRFRPPRLPRPRPRPPETPRP", "shrunken log2 fold change": 0.261}, {"sequence": "RRIRQRPPRLPRPRPRPFSHPRP", "shrunken log2 fold change": -0.127}, {"sequence": "RRIRHRPPRLPRPRPRPKQYPRP", "shrunken log2 fold change": -0.439}, {"sequence": "RRIRLRPPRLPRPRPRPVSLPRP", "shrunken log2 fold change": -0.0897}, {"sequence": "RRIRYRPPRLPRPRPRPEWRPRP", "shrunken log2 fold change": 0.172}, {"sequence": "RRIRTRPPRLPRPRPRPCVEPRP", "shrunken log2 fold change": -0.0492}, {"sequence": "RRIRFRPPRLPRPRPRPYYNPRP", "shrunken log2 fold change": -0.855}, {"sequence": "RRIRIRPPRLPRPRPRPMPTPRP", "shrunken log2 fold change": 0.316}, {"sequence": "RRIRYRPPRLPRPRPRPDAMPRP", "shrunken log2 fold change": -0.0326}, {"sequence": "RRIRKRPPRLPRPRPRPACDPRP", "shrunken log2 fold change": 0.861}, {"sequence": "RRIRERPPRLPRPRPRPESTPRP", "shrunken log2 fold change": 0.176}, {"sequence": "RRIRARPPRLPRPRPRPVWVPRP", "shrunken log2 fold change": 0.321}, {"sequence": "RRIRNRPPRLPRPRPRPCLFPRP", "shrunken log2 fold change": -0.608}, {"sequence": "RRIRFRPPRLPRPRPRPYPCPRP", "shrunken log2 fold change": -0.0436}, {"sequence": "RRIRMRPPRLPRPRPRPQTNPRP", "shrunken log2 fold change": 0.462}, {"sequence": "RRIRWRPPRLPRPRPRPQMHPRP", "shrunken log2 fold change": 0.0794}, {"sequence": "RRIRIRPPRLPRPRPRPHWTPRP", "shrunken log2 fold change": 0.0591}, {"sequence": "RRIRMRPPRLPRPRPRPYAFPRP", "shrunken log2 fold change": -0.0624}, {"sequence": "RRIRRRPPRLPRPRPRPCDRPRP", "shrunken log2 fold change": 0.0985}, {"sequence": "RRIRTRPPRLPRPRPRPMETPRP", "shrunken log2 fold change": 0.0774}, {"sequence": "RRIRPRPPRLPRPRPRPGFEPRP", "shrunken log2 fold change": 0.225}, {"sequence": "RRIRVRPPRLPRPRPRPNDFPRP", "shrunken log2 fold change": -0.0485}, {"sequence": "RRIRKRPPRLPRPRPRPNSQPRP", "shrunken log2 fold change": 0.27}, {"sequence": "RRIRCRPPRLPRPRPRPAQRPRP", "shrunken log2 fold change": 0.613}, {"sequence": "RRIRERPPRLPRPRPRPLIVPRP", "shrunken log2 fold change": -0.632}, {"sequence": "RRIRFRPPRLPRPRPRPVMGPRP", "shrunken log2 fold change": 0.368}, {"sequence": "RRIRIRPPRLPRPRPRPYPGPRP", "shrunken log2 fold change": -0.0674}, {"sequence": "RRIRVRPPRLPRPRPRPDSFPRP", "shrunken log2 fold change": -0.0784}, {"sequence": "RRIRWRPPRLPRPRPRPFANPRP", "shrunken log2 fold change": -0.0747}, {"sequence": "RRIRMRPPRLPRPRPRPYVAPRP", "shrunken log2 fold change": -0.445}, {"sequence": "RRIRWRPPRLPRPRPRPQCRPRP", "shrunken log2 fold change": -0.00115}, {"sequence": "RRIRDRPPRLPRPRPRPYPTPRP", "shrunken log2 fold change": -0.635}, {"sequence": "RRIRFRPPRLPRPRPRPWTEPRP", "shrunken log2 fold change": -0.119}, {"sequence": "RRIRFRPPRLPRPRPRPEEYPRP", "shrunken log2 fold change": -0.00963}, {"sequence": "RRIRCRPPRLPRPRPRPMQHPRP", "shrunken log2 fold change": -0.173}, {"sequence": "RRIRDRPPRLPRPRPRPTSKPRP", "shrunken log2 fold change": 0.168}, {"sequence": "RRIRNRPPRLPRPRPRPPFVPRP", "shrunken log2 fold change": 0.164}, {"sequence": "RRIRYRPPRLPRPRPRPKIDPRP", "shrunken log2 fold change": -0.344}, {"sequence": "RRIRRRPPRLPRPRPRPYLYPRP", "shrunken log2 fold change": -0.362}, {"sequence": "RRIRNRPPRLPRPRPRPKNCPRP", "shrunken log2 fold change": -0.552}, {"sequence": "RRIRFRPPRLPRPRPRPQMYPRP", "shrunken log2 fold change": -0.725}, {"sequence": "RRIRYRPPRLPRPRPRPVVHPRP", "shrunken log2 fold change": -0.00114}, {"sequence": "RRIRDRPPRLPRPRPRPGRRPRP", "shrunken log2 fold change": 0.311}, {"sequence": "RRIRPRPPRLPRPRPRPDFAPRP", "shrunken log2 fold change": 0.0996}, {"sequence": "RRIRCRPPRLPRPRPRPILSPRP", "shrunken log2 fold change": -0.362}, {"sequence": "RRIRRRPPRLPRPRPRPRFMPRP", "shrunken log2 fold change": 0.055}, {"sequence": "RRIRWRPPRLPRPRPRPECKPRP", "shrunken log2 fold change": 0.685}, {"sequence": "RRIRHRPPRLPRPRPRPEIMPRP", "shrunken log2 fold change": -0.023}, {"sequence": "RRIRARPPRLPRPRPRPWPFPRP", "shrunken log2 fold change": -0.0236}, {"sequence": "RRIRERPPRLPRPRPRPMKQPRP", "shrunken log2 fold change": -0.0573}, {"sequence": "RRIRERPPRLPRPRPRPGQPPRP", "shrunken log2 fold change": 0.0236}, {"sequence": "RRIRPRPPRLPRPRPRPMYWPRP", "shrunken log2 fold change": -0.0489}, {"sequence": "RRIRLRPPRLPRPRPRPVLNPRP", "shrunken log2 fold change": -0.325}, {"sequence": "RRIRIRPPRLPRPRPRPHKDPRP", "shrunken log2 fold change": -0.447}, {"sequence": "RRIRDRPPRLPRPRPRPENGPRP", "shrunken log2 fold change": 0.0234}, {"sequence": "RRIRNRPPRLPRPRPRPGYRPRP", "shrunken log2 fold change": -0.514}, {"sequence": "RRIRGRPPRLPRPRPRPCHIPRP", "shrunken log2 fold change": -0.028}, {"sequence": "RRIRSRPPRLPRPRPRPVFLPRP", "shrunken log2 fold change": -0.131}, {"sequence": "RRIRRRPPRLPRPRPRPRDGPRP", "shrunken log2 fold change": 0.731}]}]}
